Results taken from patent US10450368 (DUKE UNIVERSITY, dated 2019).

Legend:
[1] = target: T1, RNP (ribonucleoprotein); assay: AtheNA, Ab 6.25 ug/ml
T1 construct: Protein-RNA complex
Excerpt: (§1) AtheNA Multi-Lyte ANA Plus Test System is one such assay. This is luminex-based assay, which is also used to screen patient sera.

[2] = target: T2, Histones; assay: AtheNA, Ab 6.25 ug/ml
T2 construct: Mixture of proteins
Excerpt: as §1

[3] = target: T3, SSB (UniProt P05455 1-408); assay: AtheNA, Ab 6.25 ug/ml
T3 sequence: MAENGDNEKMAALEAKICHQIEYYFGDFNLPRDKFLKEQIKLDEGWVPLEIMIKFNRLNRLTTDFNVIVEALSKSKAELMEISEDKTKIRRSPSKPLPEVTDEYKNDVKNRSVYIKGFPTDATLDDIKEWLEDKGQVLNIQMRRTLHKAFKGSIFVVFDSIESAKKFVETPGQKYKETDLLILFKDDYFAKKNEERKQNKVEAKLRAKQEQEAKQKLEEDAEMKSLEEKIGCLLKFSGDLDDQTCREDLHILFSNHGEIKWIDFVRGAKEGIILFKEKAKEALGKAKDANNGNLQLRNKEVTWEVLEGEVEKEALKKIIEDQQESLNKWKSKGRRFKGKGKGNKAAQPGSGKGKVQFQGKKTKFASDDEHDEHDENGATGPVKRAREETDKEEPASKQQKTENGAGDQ
Excerpt: as §1

[4] = target: T4, Scl-70 (UniProt P11387 1-765); assay: AtheNA, Ab 6.25 ug/ml
T4 sequence: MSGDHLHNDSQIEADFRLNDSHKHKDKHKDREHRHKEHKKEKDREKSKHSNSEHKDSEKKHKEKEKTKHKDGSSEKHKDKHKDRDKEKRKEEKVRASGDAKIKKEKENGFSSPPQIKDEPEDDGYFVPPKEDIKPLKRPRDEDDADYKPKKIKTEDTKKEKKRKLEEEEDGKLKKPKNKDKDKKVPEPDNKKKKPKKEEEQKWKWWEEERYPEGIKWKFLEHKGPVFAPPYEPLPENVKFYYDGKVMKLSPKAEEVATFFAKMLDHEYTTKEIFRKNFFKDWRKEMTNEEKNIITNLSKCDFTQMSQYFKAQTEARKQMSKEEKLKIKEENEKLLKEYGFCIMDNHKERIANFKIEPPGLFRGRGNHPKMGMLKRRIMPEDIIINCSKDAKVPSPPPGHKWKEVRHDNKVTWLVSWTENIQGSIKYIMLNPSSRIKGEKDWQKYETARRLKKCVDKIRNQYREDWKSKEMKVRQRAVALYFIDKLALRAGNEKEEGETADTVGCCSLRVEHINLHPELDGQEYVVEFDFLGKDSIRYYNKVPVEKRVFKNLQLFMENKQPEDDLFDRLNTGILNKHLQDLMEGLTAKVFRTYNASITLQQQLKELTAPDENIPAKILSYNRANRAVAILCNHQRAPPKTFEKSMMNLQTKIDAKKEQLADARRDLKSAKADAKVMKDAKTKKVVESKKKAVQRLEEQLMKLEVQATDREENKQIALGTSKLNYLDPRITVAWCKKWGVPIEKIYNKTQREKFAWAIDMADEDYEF
Excerpt: as §1

[5] = target: T5, HIV-1 CH505 transmitted/founder gp120 Env (HIV-1); assay: SPR, antibody captured on anti-human Ig Fc, gp120 injected
T5 construct: domain: gp120; also called CH505.TF gp120; CH505 TF gp120 Env

[6] = target: T6, STUB-1 (human, UniProt Q9UNE7 1-303); assay: ProtoArray human protein microarray
T6 sequence: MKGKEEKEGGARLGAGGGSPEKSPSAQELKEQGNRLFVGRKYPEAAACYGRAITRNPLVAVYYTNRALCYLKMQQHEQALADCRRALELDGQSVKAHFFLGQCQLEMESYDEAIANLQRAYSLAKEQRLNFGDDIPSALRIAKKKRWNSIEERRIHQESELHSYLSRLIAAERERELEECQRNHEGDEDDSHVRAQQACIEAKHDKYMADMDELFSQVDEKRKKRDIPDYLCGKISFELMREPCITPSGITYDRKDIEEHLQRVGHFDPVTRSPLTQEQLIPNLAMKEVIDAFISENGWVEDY

[7] = target: T1, RNP (ribonucleoprotein); assay: AtheNA, Ab 12.5 ug/ml
[8] = target: T2, Histones; assay: AtheNA, Ab 12.5 ug/ml
[9] = target: T7, SSA; assay: AtheNA, Ab 12.5 ug/ml
T7 construct: also called SSA (Ro)

[10] = target: T8, Jo-1 (UniProt P12081 1-509); assay: AtheNA, Ab 12.5 ug/ml
T8 sequence: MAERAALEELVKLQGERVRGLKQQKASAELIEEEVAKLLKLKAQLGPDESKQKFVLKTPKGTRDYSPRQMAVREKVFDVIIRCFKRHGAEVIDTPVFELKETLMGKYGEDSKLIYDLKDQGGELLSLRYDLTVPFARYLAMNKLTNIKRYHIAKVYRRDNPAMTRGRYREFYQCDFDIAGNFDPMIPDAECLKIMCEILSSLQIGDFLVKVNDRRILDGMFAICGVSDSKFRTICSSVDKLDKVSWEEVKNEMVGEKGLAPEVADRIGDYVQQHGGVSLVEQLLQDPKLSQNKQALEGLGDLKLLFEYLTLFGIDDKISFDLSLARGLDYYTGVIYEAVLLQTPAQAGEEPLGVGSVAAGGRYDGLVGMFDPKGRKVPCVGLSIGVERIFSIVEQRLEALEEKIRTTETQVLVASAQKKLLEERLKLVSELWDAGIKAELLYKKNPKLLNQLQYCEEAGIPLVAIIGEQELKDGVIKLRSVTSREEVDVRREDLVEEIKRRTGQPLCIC

[11] = target: T3, SSB; assay: AtheNA, Ab 12.5 ug/ml
[12] = target: T9, Sm (Smith antigen); assay: AtheNA, Ab 12.5 ug/ml
T9 construct: Protein complex

[13] = target: T4, Scl-70; assay: AtheNA, Ab 12.5 ug/ml

B1: CH493 (antibody, V domains shown)
VH: QVRLLQYGGGVKRPGASMTISCVASGYNFNDYYIHWVRQAPGQGLELMGWIDPSGGRTDYAGAFGDRVSMYRDKSMNTLYMDLRSLRSGDTAMYYCVRNVGTAGSLLHYDHWGLGVMVTVSS
VL: EIVLTQSPATLSVSPGERVTLSCRASQSVRNNLAWYRQKRGQAPRLLIYGASTRATGIPARFSGSGSGTEFTLTISSMQSEDFAVYYCQQYNNWWTFGQGTKVEIK
notes: also called CH235.9; DH493
AtheNA signal [1]: 32
AtheNA signal [2]: 174
AtheNA signal [3]: 15
AtheNA signal [4]: 17

B2: CH241 (antibody, V domains shown)
VH: QVQLVQSGAAVKKPGASVRVSCKASGYTFTSSHIHWVRQAPGQGPEWMGMIDPSVGRPTTAGKFQGRVTMTRDRYTSTAYMDLSSLRSEDTAVYYCARSVETTGSLLYFDYWGQGTLITVSS
VL: EIVLTQSPATLSVSPGERATLSCRASQSVRSNIAWYQQKPGQAPRLLIHGASTRATGIPGRFSGSGSGPEFTLAISSVQSEDFAVYYCQQYNDWWTFGQGTKVEIK
Kd [5]: 0.7 nM
koff [5]: 0.00033 s⁻¹

B3: CH557 (antibody, V domains shown)
VH: QVRLAQYGGGVKRLGATMTLSCVASGYTFNDYYIHWVRQAPGQGFELLGYIDPANGRPDYAGALRERLSFYRDKSMETLYMDLRSLRYDDTAMYYCVRNVGTAGSLLHYDHWGSGSPVIVSS
VL: EIVLTQSPATLSASPGERVTLTCRASRSVRNNVAWYQHKGGQSPRLLIYDASTRAAGVPARFSGSASGTEFTLAISNLESEDFTVYFCLQYNNWWTFGQGTRVDIK
notes: also called CH235.12; CH557_4A/293i
binding result [6]: no binding
AtheNA signal [7]: 3 relative luminescence units
AtheNA signal [8]: 6 relative luminescence units
AtheNA signal [9]: 3 relative luminescence units
AtheNA signal [10]: 5 relative luminescence units
AtheNA signal [11]: 9 relative luminescence units
AtheNA signal [12]: 6 relative luminescence units
AtheNA signal [13]: 3 relative luminescence units
